Assay results as given in patent US20210380703A1 (RIGEL PHARMACEUTICALS, published 2021).
Numbering of substitutions follows the chain as printed.

B1: 365_D07 (antibody, V domains shown)
VH: EVQLLESGGGLVQPGGSLRLSCAASGFTFSSYGMNWVRQAPGKGLEWVSSINYNSGYKSYADSVKGRFTISRDNSKNTLYLQMNSLRAEDTAVYYCARGATWHDTHLDYWGQGTLVTVSS
VL: not shown
notes: VH/VL only
B2: 365_H10 (antibody, V domains shown)
VH: B1 VH with S30D, S49A, S50G, G99S, T101N
VL: DIQMTQSPSSLSASVGDRVTITCRASQSIVTYVNWYQQKPGKAPKLVIYAATSLASGVPSRFSGSGSGTDFTLTISSLQPEDFATYYCQQSYNTPLTFGGGTKVEIK
notes: VH/VL only
B3: 365_E11 (antibody, V domains shown)
VH: B1 VH with S30D, S31D, G33S, S55G
VL: not shown
notes: VH/VL only
B4: 366_B12 (antibody, V domains shown)
VH: B1 VH with G33S, S49A, S50G, S59G, G99S, T101N, H106A
VL: B2 VL with V30L, V47L, L54R, N93D, T94N
notes: VH/VL only
B5: 366_F04 (antibody, V domains shown)
VH: B1 VH with S31D, S50G, S55G, K58T, G99S, T101N, H106A
VL: B2 VL with V30L, T31S, A51T, L54R, A55H, N93E, T94S
notes: VH/VL only
B6: 366_H08 (antibody, V domains shown)
VH: B1 VH with S31D, S49A, K58T, G99S, T101N
VL: B2 VL with V30L, T31S, V47L, L54R, A55H, T94N
notes: VH/VL only
B7: 365_D12 (antibody, V domains shown)
VH: B1 VH with S30D, S50N, S55G, K58T, S59G, G99S, T101N, H106A
VL: B2 VL with V33L, L54R, N93D
notes: VH/VL only
B8: 365_G11 (antibody, V domains shown)
VH: B1 VH with S49A, S50N, S55G, K58T, S59G, G99S, T101N, H106A
VL: B2 VL with V30I, V47L, A51V, L54R, A55H, T94S
notes: VH/VL only
B9: 366_D08 (antibody, V domains shown)
VH: B1 VH with N35H, S50N, S55G
VL: B2 VL with V30L, T31S, N93E, T94N
notes: VH/VL only
B10: 365_H05 (antibody, V domains shown)
VH: B1 VH with S49A, S50G, S55G, K58T
VL: B2 VL with V30L, V47L, A55H, N93S
notes: VH/VL only
B11: 365_F12 (antibody, V domains shown)
VH: B1 VH with S31D, G33S, S50G, S55G, K58T, G99S, T101N
VL: B2 VL with V30L, L54R, A55H, N93E
notes: VH/VL only
B12: 366_B08 (antibody, V domains shown)
VH: B1 VH with S30D, S50N, S55G, S59G, G99S, T101N
VL: B2 VL with T31S, V33L, V47L, L54R, A55H, N93D, T94N
notes: VH/VL only
B13: 365_H02 (antibody, V domains shown)
VH: B1 VH with S31D, S55G, K58T, S59G, G99S, T101N
VL: B2 VL with V30L, V33L, V47L, L54R, N93E, T94N
notes: VH/VL only
B14: 366_F07 (antibody, V domains shown)
VH: B1 VH with S31D, G33S, S49A, S50G, K58T, G99S, T101N
VL: B2 VL with V30I, V33L, V47L, L54R, N93E
notes: VH/VL only
B15: 366_H06 (antibody, V domains shown)
VH: B1 VH with S55G, K58T, S59G, G99S, T101N, H106A
VL: B2 VL with V30L, T31S, V33L, V47L, A51T, L54R, N93D
notes: VH/VL only
B16: 365_E05 (antibody, V domains shown)
VH: B1 VH with N35H, S49A, S50G, S55G, K58T, G99S, T101N, H106A
VL: B2 VL with T31S, V47L, N93D, T94N
notes: VH/VL only
B17: 365_D10 (antibody, V domains shown)
VH: B1 VH with G33S, S49A, S50G, S55G, K58T, S59G
VL: B2 VL with V30S, V33L, V47L, L54R, N93E, T94S
notes: VH/VL only
B18: 365_F05 (antibody, V domains shown)
VH: B1 VH with S49A, S55G, K58T
VL: B2 VL with V47L, L54R, N93E
notes: VH/VL only
B19: 366_F08 (antibody, V domains shown)
VH: B1 VH with S55G, K58T
VL: not shown
notes: VH/VL only
B20: 365_H12 (antibody, V domains shown)
VH: B1 VH with G33S, S50N, S55G, G99S, T101N
VL: B2 VL with V30I, V47L, L54R, N93S
notes: VH/VL only
B21: 367_A02 (antibody, V domains shown)
VH: B1 VH with S30D, S59G
VL: B2 VL with V30I, T31S, V33L, V47L, A51V, L54R, N93D
notes: VH/VL only
B22: 365_E01 (antibody, V domains shown)
VH: B1 VH with S31D, G33S, S50G, S59G, G99S, T101N, H106A
VL: B2 VL with V30I, T31S, V33L, V47L, L54R, N93D, T94S
notes: VH/VL only
B23: 365_G01 (antibody, V domains shown)
VH: B1 VH with S30D, S49A, S50G, G99S, T101N, H106A
VL: B2 VL with V30L, V47L, A51T, L54R, N93D, T94S
notes: VH/VL only
B24: 366_G09 (antibody, V domains shown)
VH: B1 VH with S30D, S31D, G33S, S49A, K58T, S59G
VL: B2 VL with V30L, T31S, L54R, N93D, T94L
notes: VH/VL only
B25: 365_D11 (antibody, V domains shown)
VH: B1 VH with S30D, S50N, K58T, G99S, T101N, H106A
VL: B2 VL with T31S, V33L, L54R, N93S, T94S
notes: VH/VL only
B26: 366_D04 (antibody, V domains shown)
VH: B1 VH with G33S, S50G, S55G, K58T, G99S, T101N, H106A
VL: B2 VL with V30S, T31S, V47L, A51T, L54R, N93E
notes: VH/VL only
B27: 366_B10 (antibody, V domains shown)
VH: B1 VH with S50G, K58T, G99S, T101N, H106A
VL: B2 VL with V30I, T31S, V33L, V47L, L54R, N93D, T94N
notes: VH/VL only
B28: 365_H11 (antibody, V domains shown)
VH: B1 VH with G33S, S50G, K58T, S59G, G99S, T101N, H106A
VL: B2 VL with V30L, V33L, V47L, L54R, N93D, T94S
notes: VH/VL only
B29: 365_E07 (antibody, V domains shown)
VH: B1 VH with S30D, N35H, S50G, K58T, R98K, G99S, T101N
VL: B2 VL with V30L, T31S, V33L, V47L, L54R, N93D, T94N
notes: VH/VL only
B30: 366_F05 (antibody, V domains shown)
VH: B1 VH with G33S, S49A, S50N, G99S, T101N
VL: B2 VL with V30L, V33L, V47L, L54R, Y92D
notes: VH/VL only
B31: 366_G04 (antibody, V domains shown)
VH: B1 VH with G33S, S50G, K58T, G99S, T101N, H106A
VL: B2 VL with V30I, V33L, V47L, L54R, Y92D, N93D
notes: VH/VL only
B32: 365_D09 (antibody, V domains shown)
VH: B1 VH with N35H, S50G, K58T, G99S, T101N, H106A
VL: B2 VL with V30L, T31S, V33L, V47L, L54R, Y92D, N93E, T94S
notes: VH/VL only
B33: 365_H06 (antibody, V domains shown)
VH: B1 VH with S50G, K58T, S59G, G99S, T101N, H106A
VL: B2 VL with V30S, T31S, V47L, L54R, N93S
notes: VH/VL only
B34: 365_E09 (antibody, V domains shown)
VH: B1 VH with N35H, S49A, G99S, T101N, H106A
VL: B2 VL with V30L, L54R, Y92D, N93D, T94S
notes: VH/VL only
B35: 365_F06 (antibody, V domains shown)
VH: B1 VH with S49A, S50G, G99S, T101N, H106A
VL: B2 VL with V30L, T31S, V47L, L54R, Y92D, T94L
notes: VH/VL only

Each binder was assayed against T1, Human ACVR2A (human, UniProt P27037 20-135, limits assumed) (assay: ELISA).
T1 construct: also called activin receptor, type II A
T1 sequence (P27037 20-135 limits assumed): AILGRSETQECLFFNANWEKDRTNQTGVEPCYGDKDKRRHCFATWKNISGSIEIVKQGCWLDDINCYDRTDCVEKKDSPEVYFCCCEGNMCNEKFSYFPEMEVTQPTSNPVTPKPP
Protocol: (§1) The binding of ACVR2A-specific monoclonal antibodies to human ACVR2A, mouse ACVR2A, biotinylated goat anti-human kappa light chain (positive control) and human Fc (negative control) were determined by ELISA.
Further: test concentration or dose not given here.

optical density [OD]	Binder
1.83	B1
2.68	B2
1.74	B3
3.24	B4
1.73	B5
2.59	B6
2.57	B7
1.75	B8
2.17	B9
2.1	B10
2.91	B11
2.15	B12
2.73	B13
2.39	B14
2.29	B15
2.18	B16
2.39	B17
2.14	B18

optical density [OD]	Binder
1.86	B19
2.97	B20
2.23	B21
2.91	B22
2.48	B23
1.85	B24
2.34	B25
2.08	B26
2.33	B27
3.24	B28
2.38	B29
2.19	B30
1.85	B31
1.52	B32
2.24	B33
1.91	B34
1.95	B35

These binders were tested against Mouse ACVR2A (mouse, UniProt P27038 20-135, limits assumed) (assay: ELISA).
Mouse ACVR2A, sequence (P27038 20-135 limits assumed): as the sequence (P27037 20-135 limits assumed) above, with K20R, V73I counted along it
Protocol: as §1

optical density [OD]	Binder
2.06	B1
2.82	B2
1.74	B3
2.99	B4
1.91	B5
2.77	B6
2.61	B7
1.78	B8
2.46	B9
2.19	B10
2.83	B11
2.38	B12
2.91	B13
2.53	B14
2.59	B15
2.44	B16
2.24	B17
2.23	B18

optical density [OD]	Binder
2	B19
2.91	B20
2.42	B21
2.84	B22
2.65	B23
2.04	B24
2.22	B25
2.12	B26
2.44	B27
3.35	B28
2.7	B29
2.67	B30
2.18	B31
1.35	B32
2.46	B33
2.16	B34
2.08	B35

What follows are binders tested against T2, Goat anti-Human Kappa (assay: ELISA; positive control).
T2 construct: Positive control; also called biotinylated goat anti-human kappa light chain
Protocol: as §1

optical density [OD]	Binder
3.38	B1
3.51	B2
3.57	B3
3.44	B4
3.37	B5
3.55	B6
3.53	B7
3.47	B8
3.65	B9
3.46	B10
3.63	B11
3.05	B12
3.58	B13
3.47	B14
3.39	B15
3.36	B16
3.27	B17
3.42	B18

optical density [OD]	Binder
3.47	B19
3.78	B20
3.58	B21
3.54	B22
3.45	B23
3.44	B24
3.38	B25
3.46	B26
3.06	B27
3.61	B28
3.51	B29
3.25	B30
3.29	B31
3.38	B32
3.44	B33
3.47	B34
3.4	B35
